In this test the target is His6-Mb(S2)-Avi, recombinant monobody. In words: BLI.

As to “wild-type (WT) SOD1, non-tagged recombinant (from UniProt P00441 2-154) (natural protein)”, the Kd was found to be 7 µM.

Source of the values: publication PMC10955725.
